From patent US20150376265A1 (Genentech, published 2015)

T1: HCMV gH on virions of strain VR1814 (HCMV, UniProt P12824 24-743)
T1 sequence: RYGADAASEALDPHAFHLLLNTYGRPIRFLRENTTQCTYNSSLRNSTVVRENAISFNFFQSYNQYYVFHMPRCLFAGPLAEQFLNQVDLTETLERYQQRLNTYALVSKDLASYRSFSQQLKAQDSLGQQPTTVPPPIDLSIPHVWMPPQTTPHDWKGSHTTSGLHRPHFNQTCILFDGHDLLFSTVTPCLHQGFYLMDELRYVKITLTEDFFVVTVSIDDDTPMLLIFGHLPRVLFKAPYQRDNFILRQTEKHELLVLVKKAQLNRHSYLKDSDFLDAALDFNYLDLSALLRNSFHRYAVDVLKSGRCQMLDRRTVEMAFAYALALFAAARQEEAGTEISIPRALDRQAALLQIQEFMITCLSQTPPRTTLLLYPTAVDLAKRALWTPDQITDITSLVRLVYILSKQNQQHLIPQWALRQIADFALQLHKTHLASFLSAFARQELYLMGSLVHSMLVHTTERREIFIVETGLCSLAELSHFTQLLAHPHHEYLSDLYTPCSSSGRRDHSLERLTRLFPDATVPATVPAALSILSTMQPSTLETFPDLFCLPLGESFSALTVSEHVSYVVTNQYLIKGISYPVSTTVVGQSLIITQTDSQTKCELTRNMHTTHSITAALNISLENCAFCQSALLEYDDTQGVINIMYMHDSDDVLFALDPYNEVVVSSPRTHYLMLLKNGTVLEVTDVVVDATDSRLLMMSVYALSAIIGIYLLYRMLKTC

T2: soluble baculovirus-expressed gH/gL (HCMV, UniProt P12824 24-720; P16832 31-278)
T2 construct: also called gH/gL dimer produced in baculovirus; baculovirus expressed, secreted gH/gL
T2 sequence 1: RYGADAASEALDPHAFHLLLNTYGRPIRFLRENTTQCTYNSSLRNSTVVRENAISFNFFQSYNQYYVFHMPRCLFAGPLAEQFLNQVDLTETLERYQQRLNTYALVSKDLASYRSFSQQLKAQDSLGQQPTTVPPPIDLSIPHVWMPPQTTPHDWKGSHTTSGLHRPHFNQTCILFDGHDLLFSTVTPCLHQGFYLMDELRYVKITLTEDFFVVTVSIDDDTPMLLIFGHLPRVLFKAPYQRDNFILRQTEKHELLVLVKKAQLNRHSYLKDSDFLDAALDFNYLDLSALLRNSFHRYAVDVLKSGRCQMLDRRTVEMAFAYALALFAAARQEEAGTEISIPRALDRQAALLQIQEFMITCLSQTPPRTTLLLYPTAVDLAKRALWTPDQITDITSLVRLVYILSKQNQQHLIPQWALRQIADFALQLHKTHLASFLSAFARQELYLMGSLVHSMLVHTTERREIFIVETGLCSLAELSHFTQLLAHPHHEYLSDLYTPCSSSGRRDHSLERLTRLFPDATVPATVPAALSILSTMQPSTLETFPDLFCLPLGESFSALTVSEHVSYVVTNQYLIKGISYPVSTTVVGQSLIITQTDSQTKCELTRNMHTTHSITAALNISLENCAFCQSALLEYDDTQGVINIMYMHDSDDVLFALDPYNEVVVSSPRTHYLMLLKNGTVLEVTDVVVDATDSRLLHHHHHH
T2 sequence 2: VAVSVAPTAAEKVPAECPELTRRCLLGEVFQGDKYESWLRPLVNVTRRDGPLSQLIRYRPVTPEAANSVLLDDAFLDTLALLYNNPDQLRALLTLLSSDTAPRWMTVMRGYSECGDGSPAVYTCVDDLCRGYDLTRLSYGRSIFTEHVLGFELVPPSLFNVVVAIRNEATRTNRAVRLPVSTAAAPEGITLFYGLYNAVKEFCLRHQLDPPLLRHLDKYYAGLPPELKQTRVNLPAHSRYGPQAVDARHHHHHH


Key:
[1] = biological target: T1, HCMV gH on virions of strain VR1814; assay: cell-based or functional assay
[2] = biological target: T1, HCMV gH on virions of strain VR1814; assay: cell-based or functional assay; remark: listed apart in the source
[3] = biological target: T1, HCMV gH on virions of strain VR1814; assay: cell-based or functional assay; remark: listed apart in the source
[4] = biological target: T2, soluble baculovirus-expressed gH/gL; assay: competition phage ELISA: phage-displayed Fab with serially diluted soluble gH/gL, free phage caught on coated gH/gL

Binder	IC50 [4] [nM]	further results
MSL-109 (antibody, V domains shown) VH: EEQVLESGGGLVKPGGSLRLSCAASGFTFSPYSVFWVRQAPGKGLEWVSSINSDSTYKYYADSVKGRFTISRDNAENSIFLQMNSLRAEDTAVYYCARDRSYYAFSSGSLSDYYYGLDVWGQGTLVTVSS VL: DIVMTQSPLSLSVTPGEPASISCRSSQSLLHTNGYNYLDWYVQKPGQSPQLLIYLASNRASGVPDRFSGSGSGTDFTLKISRVETEDVGVYYCMQALQIPRTFGQGTKVEIK	–	EC50, neutralisation of HCMV strain VR1814 on endothelial cells [1]: 0.0764 µg/mL; EC50, neutralisation of HCMV strain VR1814 on epithelial cells [1]: 0.164 µg/mL; EC50, neutralisation of HCMV strain VR1814 on fibroblasts [1]: 0.389 µg/mL; Epithelial EC50 (first pair of columns), neutralisation [2]: 0.3 µg/mL; Epithelial EC50 (second pair of columns), neutralisation [2]: 0.48 µg/mL; Fibroblast EC50, neutralisation [2]: 0.73 µg/mL; MDM EC50, neutralisation [2]: 0.04 µg/mL
MSL-109 Fab fragment (WT) (Fab, V domains shown) VH: EEQVLESGGGLVKPGGSLRLSCAASGFTFSPYSVFWVRQAPGKGLEWVSSINSDSTYKYYADSVKGRFTISRDNAENSIFLQMNSLRAEDTAVYYCARDRSYYAFSSGSLSDYYYGLDVWGQGTLVTVSS VL: DIVMTQSPLSLSVTPGEPASISCRSSQSLLHTNGYNYLDWYVQKPGQSPQLLIYLASNRASGVPDRFSGSGSGTDFTLKISRVETEDVGVYYCMQALQIPRTFGQGTKVEIK	–	EC50, inhibition of HCMV entry into ARPE-19 cells, Fab fragments from E. coli [3]: 6.2 nM
HB2 Fab fragment, H2-D53Q/T55R (HB2) (Fab, name in Kabat numbering, V domains shown) VH: EEQVLESGGGLVKPGGSLRLSCAASGFTFSPYSVFWVRQAPGKGLEWVSSINSQSRYKYYADSVKGRFTISRDNAENSIFLQMNSLRAEDTAVYYCARDRSYYAFSSGSLSDYYYGLDVWGQGTLVTVSS VL: DIVMTQSPLSLSVTPGEPASISCRSSQSLLHTNGYNYLDWYVQKPGQSPQLLIYLASNRASGVPDRFSGSGSGTDFTLKISRVETEDVGVYYCMQALQIPRTFGQGTKVEIK	0.01	–
MSL-109 Fab variant H2-D53F/T55R (Fab, name in Kabat numbering, V domains shown) VH: EEQVLESGGGLVKPGGSLRLSCAASGFTFSPYSVFWVRQAPGKGLEWVSSINSFSRYKYYADSVKGRFTISRDNAENSIFLQMNSLRAEDTAVYYCARDRSYYAFSSGSLSDYYYGLDVWGQGTLVTVSS VL: DIVMTQSPLSLSVTPGEPASISCRSSQSLLHTNGYNYLDWYVQKPGQSPQLLIYLASNRASGVPDRFSGSGSGTDFTLKISRVETEDVGVYYCMQALQIPRTFGQGTKVEIK	0.01	–
MSL-109 Fab variant H2-D53L (Fab, name in Kabat numbering, V domains shown) VH: EEQVLESGGGLVKPGGSLRLSCAASGFTFSPYSVFWVRQAPGKGLEWVSSINSLSTYKYYADSVKGRFTISRDNAENSIFLQMNSLRAEDTAVYYCARDRSYYAFSSGSLSDYYYGLDVWGQGTLVTVSS VL: DIVMTQSPLSLSVTPGEPASISCRSSQSLLHTNGYNYLDWYVQKPGQSPQLLIYLASNRASGVPDRFSGSGSGTDFTLKISRVETEDVGVYYCMQALQIPRTFGQGTKVEIK	0.02	–
MSL-109 Fab variant H2-D53L/T55R (Fab, name in Kabat numbering, V domains shown) VH: EEQVLESGGGLVKPGGSLRLSCAASGFTFSPYSVFWVRQAPGKGLEWVSSINSLSRYKYYADSVKGRFTISRDNAENSIFLQMNSLRAEDTAVYYCARDRSYYAFSSGSLSDYYYGLDVWGQGTLVTVSS VL: DIVMTQSPLSLSVTPGEPASISCRSSQSLLHTNGYNYLDWYVQKPGQSPQLLIYLASNRASGVPDRFSGSGSGTDFTLKISRVETEDVGVYYCMQALQIPRTFGQGTKVEIK	0.02	–
MSL-109 Fab variant H2-D53M (Fab, name in Kabat numbering, V domains shown) VH: EEQVLESGGGLVKPGGSLRLSCAASGFTFSPYSVFWVRQAPGKGLEWVSSINSMSTYKYYADSVKGRFTISRDNAENSIFLQMNSLRAEDTAVYYCARDRSYYAFSSGSLSDYYYGLDVWGQGTLVTVSS VL: DIVMTQSPLSLSVTPGEPASISCRSSQSLLHTNGYNYLDWYVQKPGQSPQLLIYLASNRASGVPDRFSGSGSGTDFTLKISRVETEDVGVYYCMQALQIPRTFGQGTKVEIK	0.05	–
MSL-109 Fab variant H2-D53M/T55R (Fab, name in Kabat numbering, V domains shown) VH: EEQVLESGGGLVKPGGSLRLSCAASGFTFSPYSVFWVRQAPGKGLEWVSSINSMSRYKYYADSVKGRFTISRDNAENSIFLQMNSLRAEDTAVYYCARDRSYYAFSSGSLSDYYYGLDVWGQGTLVTVSS VL: DIVMTQSPLSLSVTPGEPASISCRSSQSLLHTNGYNYLDWYVQKPGQSPQLLIYLASNRASGVPDRFSGSGSGTDFTLKISRVETEDVGVYYCMQALQIPRTFGQGTKVEIK	0.07	–
MSL-109 Fab variant H2-D53N (Fab, name in Kabat numbering, V domains shown) VH: EEQVLESGGGLVKPGGSLRLSCAASGFTFSPYSVFWVRQAPGKGLEWVSSINSNSTYKYYADSVKGRFTISRDNAENSIFLQMNSLRAEDTAVYYCARDRSYYAFSSGSLSDYYYGLDVWGQGTLVTVSS VL: DIVMTQSPLSLSVTPGEPASISCRSSQSLLHTNGYNYLDWYVQKPGQSPQLLIYLASNRASGVPDRFSGSGSGTDFTLKISRVETEDVGVYYCMQALQIPRTFGQGTKVEIK	0.06	–
MSL-109 Fab variant H2-D53S (Fab, name in Kabat numbering, V domains shown) VH: EEQVLESGGGLVKPGGSLRLSCAASGFTFSPYSVFWVRQAPGKGLEWVSSINSSSTYKYYADSVKGRFTISRDNAENSIFLQMNSLRAEDTAVYYCARDRSYYAFSSGSLSDYYYGLDVWGQGTLVTVSS VL: DIVMTQSPLSLSVTPGEPASISCRSSQSLLHTNGYNYLDWYVQKPGQSPQLLIYLASNRASGVPDRFSGSGSGTDFTLKISRVETEDVGVYYCMQALQIPRTFGQGTKVEIK	0.1	–
MSL-109 Fab variant H2-D53S/T55R (Fab, name in Kabat numbering, V domains shown) VH: EEQVLESGGGLVKPGGSLRLSCAASGFTFSPYSVFWVRQAPGKGLEWVSSINSSSRYKYYADSVKGRFTISRDNAENSIFLQMNSLRAEDTAVYYCARDRSYYAFSSGSLSDYYYGLDVWGQGTLVTVSS VL: DIVMTQSPLSLSVTPGEPASISCRSSQSLLHTNGYNYLDWYVQKPGQSPQLLIYLASNRASGVPDRFSGSGSGTDFTLKISRVETEDVGVYYCMQALQIPRTFGQGTKVEIK	0.03	–
MSL-109 Fab variant H2-D53T (Fab, name in Kabat numbering, V domains shown) VH: EEQVLESGGGLVKPGGSLRLSCAASGFTFSPYSVFWVRQAPGKGLEWVSSINSTSTYKYYADSVKGRFTISRDNAENSIFLQMNSLRAEDTAVYYCARDRSYYAFSSGSLSDYYYGLDVWGQGTLVTVSS VL: DIVMTQSPLSLSVTPGEPASISCRSSQSLLHTNGYNYLDWYVQKPGQSPQLLIYLASNRASGVPDRFSGSGSGTDFTLKISRVETEDVGVYYCMQALQIPRTFGQGTKVEIK	0.06	–
MSL-109 Fab variant H2-D53T/T55R (Fab, name in Kabat numbering, V domains shown) VH: EEQVLESGGGLVKPGGSLRLSCAASGFTFSPYSVFWVRQAPGKGLEWVSSINSTSRYKYYADSVKGRFTISRDNAENSIFLQMNSLRAEDTAVYYCARDRSYYAFSSGSLSDYYYGLDVWGQGTLVTVSS VL: DIVMTQSPLSLSVTPGEPASISCRSSQSLLHTNGYNYLDWYVQKPGQSPQLLIYLASNRASGVPDRFSGSGSGTDFTLKISRVETEDVGVYYCMQALQIPRTFGQGTKVEIK	0.03	–
MSL-109 Fab variant H2-T55R (Fab, name in Kabat numbering, V domains shown) VH: EEQVLESGGGLVKPGGSLRLSCAASGFTFSPYSVFWVRQAPGKGLEWVSSINSDSRYKYYADSVKGRFTISRDNAENSIFLQMNSLRAEDTAVYYCARDRSYYAFSSGSLSDYYYGLDVWGQGTLVTVSS VL: DIVMTQSPLSLSVTPGEPASISCRSSQSLLHTNGYNYLDWYVQKPGQSPQLLIYLASNRASGVPDRFSGSGSGTDFTLKISRVETEDVGVYYCMQALQIPRTFGQGTKVEIK	0.17	–
